According to publication PMC8528726, “Kinetics of H2O2-driven catalysis by a lytic polysaccharide monooxygenase from the fungus Trichoderma reesei” (The Journal of Biological Chemistry, 2021):

Substrate: O=C1O[C@H]([C@@H](O)CO)C(O)=C1O
Experiment: purified protein
Type: biochemical, Trichoderma reesei
Details: 50 mM sodium acetate pH 5.0, 25 °C
[1] = ascorbate peroxidase reaction, co-substrate H2O2, true value extrapolated over [H2O2], ping-pong, insufficient AscA saturation, treat with caution

B1: TrAA9A (Trichoderma reesei QM6a) (protein)
chain: HGHINDIVINGVWYQAYDPTTFPYESNPPIVVGWTAADLDNGFVSPDAYQNPDIICHKNATNAKGHASVKAGDTILFQWVPVPWPHPGPIVDYLANCNGDCETVDKTTLEFFKIDGVGLLSGGDPGTWASDVLISNNNTWVVKIPDNLAPGNYVLRHEIIALHSAGQANGAQNYPQCFNIAVSGSGSLQPSGVLGTDLYHATDPGVLINIYTSPLNYIIPGPTVVSGLPTSVAQGSSAATATASATVPGGGSGPTSRTTTTARTTQASSRPSSTPPATTSAPAGGPTQTLYGQCGGSGYSGPTRCAPPATCSTLNPYYAQCLN
notes: saturated with copper
B1 gave a Km [1] of 140 µM, a kcat [1] of 2.1 s⁻¹ and a K0.5 (cellulose peroxygenase reaction, priming reductant, H2O2 and BMCC present, varied: cofactor) of 0.1 mM.
